The target in the test is T1, sulfatase 1 (SULF1) antigen.
T1 construct: also called antigen peptide
T1 peptide: CNPRPKNLDVGNKDGGSYD
The test is described as follows: indirect ELISA, antigen coated on plate, HRP-labeled secondary antibody, A450 nm. From the text: This embodiment is directed to two antibodies (anti-GALNS specific antibody and anti-SULF1 specific antibody) and analyzes their specificity to the target proteins under different concentrations of antigen. The indirect ELISA detection method was used to conduct antibody specificity analysis, compare the specificity performance of antibodies to different concentrations of antigens, and BSA was used as the background control group for evaluation. The antigen was coated on a 96-well ELISA plate, the test antibody and the HRP-labeled secondary antibody were added for reaction, and the absorbance value was measured using a 450 nm wavelength microplate reader.

The values below come from patent US20250250360A1 (CCBIOTECH, published 2025).

B1: anti-sulfatase 1 (SULF1) specific antibody (antibody, V domains shown)
VH: EVKLQESGAELVKPGASVKMSCKASGYTFTSYWMHWVKQRPGQGLEWIGTIDPSDSYTSYNQKFKGKATLTVDTSSSTAYMQLSSLTSEDSAVYYCTRGEYGNAMDYWGQGTSVTVSS
VL: DIVLTQTPSYLAASPGETITINCRASKSISKYLAWYQEKPGKTNKLLIYSGSTLQSGIPSRFSGSGSGTDFTLTISSLEPEDFAMYYCQQHNEYPYTFGGGTKLEIKR
notes: also called anti-SULF1 specific antibody; anti-Sulf1 specific antibody
Consider B1, for which the binding result is listed as “binds”.
